In general, Kd refers to the equilibrium constant for the complex coming apart.

The target in the assay is Purified recombinant rClfB protein (clumping factor B of Staphylococcus aureus) (Staphylococcus aureus, UniProt O86476 45-877).
Sequence of Purified recombinant rClfB protein (clumping factor B of Staphylococcus aureus) (O86476 45-877): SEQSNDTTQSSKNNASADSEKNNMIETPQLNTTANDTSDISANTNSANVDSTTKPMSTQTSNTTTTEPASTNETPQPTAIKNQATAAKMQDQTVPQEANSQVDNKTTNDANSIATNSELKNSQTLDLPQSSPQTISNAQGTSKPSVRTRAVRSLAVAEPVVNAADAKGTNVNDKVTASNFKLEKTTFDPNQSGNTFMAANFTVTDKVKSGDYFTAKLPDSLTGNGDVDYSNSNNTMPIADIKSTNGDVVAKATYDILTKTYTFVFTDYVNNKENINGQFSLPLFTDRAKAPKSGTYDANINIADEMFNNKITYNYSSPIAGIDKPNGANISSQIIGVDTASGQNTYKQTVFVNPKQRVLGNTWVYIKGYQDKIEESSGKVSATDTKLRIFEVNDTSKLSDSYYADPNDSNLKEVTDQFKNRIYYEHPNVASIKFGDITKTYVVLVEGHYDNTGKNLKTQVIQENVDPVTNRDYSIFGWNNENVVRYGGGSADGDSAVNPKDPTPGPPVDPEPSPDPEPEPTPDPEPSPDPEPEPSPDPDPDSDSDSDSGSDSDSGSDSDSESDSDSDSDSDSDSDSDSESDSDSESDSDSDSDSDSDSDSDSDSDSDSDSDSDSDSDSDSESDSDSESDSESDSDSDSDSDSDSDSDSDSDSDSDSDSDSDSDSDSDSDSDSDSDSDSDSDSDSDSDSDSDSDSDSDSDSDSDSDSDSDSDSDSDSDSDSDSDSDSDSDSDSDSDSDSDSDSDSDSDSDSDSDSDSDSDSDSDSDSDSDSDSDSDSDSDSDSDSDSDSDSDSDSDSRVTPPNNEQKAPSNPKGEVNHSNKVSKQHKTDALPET

B1: Purified recombinant human cytokeratin 10 (natural protein, UniProt P13645 1-584, looked up)
chain: MSVRYSSSKHYSSSRSGGGGGGGGCGGGGGVSSLRISSSKGSLGGGFSSGGFSGGSFSRGSSGGGCFGGSSGGYGGLGGFGGGSFRGSYGSSSFGGSYGGIFGGGSFGGGSFGGGSFGGGGFGGGGFGGGFGGGFGGDGGLLSGNEKVTMQNLNDRLASYLDKVRALEESNYELEGKIKEWYEKHGNSHQGEPRDYSKYYKTIDDLKNQILNLTTDNANILLQIDNARLAADDFRLKYENEVALRQSVEADINGLRRVLDELTLTKADLEMQIESLTEELAYLKKNHEEEMKDLRNVSTGDVNVEMNAAPGVDLTQLLNNMRSQYEQLAEQNRKDAEAWFNEKSKELTTEIDNNIEQISSYKSEITELRRNVQALEIELQSQLALKQSLEASLAETEGRYCVQLSQIQAQISALEEQLQQIRAETECQNTEYQQLLDIKIRLENEIQTYRSLLEGEGSSGGGGRGGGSFGGGYGGGSSGGGSSGGGHGGGHGGSSGGGYGGGSSGGGSSGGGYGGGSSSGGHGGSSSGGYGGGSSGGGGGGYGGGSSGGGSSSGGGYGGGSSSGGHKSSSSGSVGESSSKGPRY
With B1, the Kd fell in the range of 1400 to 1700 nM.

The values above are taken from paper PMC7129694 (Clinical Microbiology and Infection, 2005).
